According to paper PMC10393190 (Genes & Development, 2022):
Substitutions are numbered along the chain they refer to. Read-outs that look alike come from different tables or passages of the source.

B1: HisSUMO-Rec15 coiled-coil domain (residues 1–160) (S. pombe) (domain or fragment)
chain: MSYSVSAAQLWSRKLAMQAEDMQQHQKSQSNQIASCLAEMNTKQEVVNQTIGQLGRSISEVQQQNSQLVLQSLNQINMSMQQVALGIQDYASRINKLEQTMSDMNLKFEALQKEQNSNTKTLADCTSQMTIITKKLDAELKKRYMTTKQTRTVQNQTMPR
B2: Rec114 C-terminal (dimerization) domain, residues 375–428 (domain or fragment)
chain: EASPSEGLTIRVKNVNRNASRKISKRLIKEKLKDEEFMKWVNKVETVLNKMFEK
B3: Mer2 (residues 161–224) (domain or fragment)
chain: TRHVTNKQHETEKSMRCTQEMLFNVGSQLEDVHKVLLSLSKDMHSLQTRQTALEMAFREKADHA
B4: Y (cb095/cb098/cb101) (structured_DNA)
DNA 1: CTAGTATAGAGCCGGCGCGCCATGTCTAGATAGCGTTAGGTCTGCCGAATAGTACTACTCGGATCCCGAGCGAACCACGC
DNA 2: CACGGGTAACCGCGGGTACCGTGAAGATCTACTCGCGTCTCCTAACGCTATCTAGACATGGCGCGCCGGCTCTATACTAG
DNA 3: GCGTGGTTCGCTCGGGATCCGAGTAGTACTATTCGGCAGAAGACGCGAGTAGATCTTCACGGTACCCGCGGTTACCCGTG
B5: HJ40 fluorescent (dd077/cb096/cb097/cb098) (structured_DNA)
DNA 1: B4 DNA 1
DNA 2: GCGTGGTTCGCTCGGGATCCGAGTAGTACTATTCGGCAGAGGATTCGAATAGGCCTAATCGAATTCCGCCATCGATGCAC
DNA 3: GTGCATCGATGGCGGAATTCGATTAGGCCTATTCGAATCCAGACGCGAGTAGATCTTCACGGTACCCGCGGTTACCCGTG
DNA 4: B4 DNA 2
B6: dsDNA 80 bp (cb095/cb100) (dsDNA)
DNA 1: B4 DNA 1
DNA 2: GCGTGGTTCGCTCGGGATCCGAGTAGTACTATTCGGCAGACCTAACGCTATCTAGACATGGCGCGCCGGCTCTATACTAG
B7: HisSUMO-tagged Mer2 coiled-coil domain (residues 41–224) (domain or fragment)
chain: KVANAGALEESDKQILEWAGKLELESMELRENSDKLIKVLNENSKTLCKSLNKFNQLLEQDAATNGNVKTLIKDLASQIENQLDKVSTAMLSKGDEKKTKSDSSYRQVLVEEISRYNSKITRHVTNKQHETEKSMRCTQEMLFNVGSQLEDVHKVLLSLSKDMHSLQTRQTALEMAFREKADHA
B8: Mer2 N-terminal half of the coiled coil (residues 41–136) (domain or fragment)
chain: KVANAGALEESDKQILEWAGKLELESMELRENSDKLIKVLNENSKTLCKSLNKFNQLLEQDAATNGNVKTLIKDLASQIENQLDKVSTAMLSKGDE
B9: Mer2 C-terminal half of the coiled coil (residues 138–224) (domain or fragment)
chain: KTKSDSSYRQVLVEEISRYNSKITRHVTNKQHETEKSMRCTQEMLFNVGSQLEDVHKVLLSLSKDMHSLQTRQTALEMAFREKADHA
B10: HisSUMO-PRD3 coiled-coil domain (residues 120–270) (A. thaliana) (domain or fragment)
chain: IGESKSQISEELEQRFGMMETSLSRFGMMLDSIQSDIMQANRGTKEVFLETERIQQKLTLQDTSLQQLRKEQADSKASLDGGVKFILEEFSKDPNQEKLQKILQMLTTIPEQVETALQKIQREICHTFTREIQVLASLRTPEPRVRVPTAP
B11: HisSUMO-IHO1 coiled-coil domain (residues 109–267) (M. musculus) (domain or fragment)
chain: GKSKGLSKQFEEKKRRATDQSDSETLHSFVSHFPEVINKLQTSVEKTEENLSSRSQSILDSVETIAKTFQETARVQHDLMVESVRDKGSMEQAILEIQRTCAARQAEFMEMKSTLKNLEVLVVEQTKNLQQFCDNLSQLIVPGILEELKKFTSVPQVAG

What was measured:
[1] = target: HisSUMO-ASY2 coiled-coil domain (residues 55–275) (Sordaria macrospora) (Sordaria macrospora); assay: SEC-MALS
[2] = target: HisSUMO-PAIR1 coiled-coil domain (residues 140–310) (Z. mays) (Z. mays); assay: SEC-MALS
[3] = target: the molecule itself; assay: SEC-MALS
[4] = target: the molecule itself; assay: NMR
[5] = target: T1, Mer2 (Saccharomyces cerevisiae, UniProt P21651 1-314); assay: EMSA
T1 sequence: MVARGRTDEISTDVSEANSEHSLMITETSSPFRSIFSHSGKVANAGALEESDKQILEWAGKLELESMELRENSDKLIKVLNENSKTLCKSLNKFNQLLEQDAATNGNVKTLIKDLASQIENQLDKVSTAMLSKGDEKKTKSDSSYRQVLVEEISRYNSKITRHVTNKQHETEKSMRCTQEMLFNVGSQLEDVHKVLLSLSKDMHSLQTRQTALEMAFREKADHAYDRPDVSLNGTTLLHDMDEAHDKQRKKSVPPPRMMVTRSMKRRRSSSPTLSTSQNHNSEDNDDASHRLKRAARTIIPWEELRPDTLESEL

[6] = target: T2, Rec114-6KR C-terminal domain;Mei4 N-terminal domain (Saccharomyces cerevisiae;Saccharomyces …, UniProt P32841;P29467 375-428;1-43, R395A;K396A;K399A;R400A;K403A;K407A|); assay: EMSA
T2 sequence 1: B2 chain with R21A, K22A, K25A, R26A, K29A, K33A
T2 sequence 2: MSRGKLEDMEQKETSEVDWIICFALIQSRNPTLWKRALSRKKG

[7] = target: T3, Rec15-5KR coiled-coil domain (Schizosaccharomyces pombe, UniProt Q09094 1-160, K134A;K135A;K141A;K142A;R143A); assay: EMSA
T3 sequence: B1 chain with K134A, K135A, K141A, K142A, R143A

[8] = target: T4, IHO1-KKRR coiled-coil domain (Mus musculus, UniProt Q6PDM4 109-267, K121A;K122A;R123A;R124A); assay: EMSA
T4 sequence: B11 chain with K13A, K14A, R15A, R16A

[9] = target: T5, Rec15 coiled-coil domain (Schizosaccharomyces pombe, UniProt Q09094 1-160); assay: EMSA
T5 sequence: B1 chain

[10] = target: T6, IHO1 coiled-coil domain (Mus musculus, UniProt Q6PDM4 109-267); assay: EMSA
T6 sequence: B11 chain

[11] = target: T7, Mer2-KKTK mutant (Saccharomyces cerevisiae, UniProt P21651 1-314, K137A;K138A;K140A); assay: EMSA
T7 sequence: T1 sequence with K137A, K138A, K140A

[12] = target: T1, Mer2; assay: EMSA; remark: listed apart in the source
[13] = target: B2; assay: NMR

With “HisSUMO-ASY2 coiled-coil domain (residues 55–275) (Sordaria macrospora) (domain or fragment)” the stoichiometry N [1] was 4.

Molecule “HisSUMO-PAIR1 coiled-coil domain (residues 140–310) (Z. mays) (domain or fragment)” has a stoichiometry N [2] of 4.

B1 was tested, and the “stoichiometry N” value [3] was 4.

B2: binds [4].

In the case of B3, the “stoichiometry N” value [3] is reported as 3.

In the case of B4, the “apparent K (half saturation)” value [5] is reported as 10.6 ± 1.2 nM.

B5: no binding [6]; no binding [7]; no binding [8]. B5: binds [9]; binds [10]; binds [11].

B6 was tested, and the “apparent K (half saturation)” value [12] was 36.8 ± 13.3 nM.

MSRGKLEDMEQKETSEVDWIICFALIQSRNPTLWKRALSRKKG (domain or fragment) [Mei4 N-terminal domain, residues 1–43]: binds [13].

In the case of B7, the “stoichiometry N” value [3] is reported as 4.

For B8, the “stoichiometry N” value [3] was 2.

In the case of B9, the “stoichiometry N” value [3] is reported as 4.

In the case of B10, the “stoichiometry N” value [3] is reported as 4.

With B11 the “stoichiometry N” value [3] was 4.
